Measured values published in article PMC12474247.
“And” between values parts separate entries of the source, which are not always exact repeats. Identical values can stand only once.

Target: small hepatitis delta antigen with C-terminal His6-tag (SHDAg-His6), native preparation (hepatitis D virus genotype 1)
Assay: SEC

## small hepatitis delta antigen with C-terminal His6-tag (SHDAg-His6), native preparation (natural protein)
  stoichiometry N: 4 and 8
